From article doi:10.1101/188169

Molecular target: endogenous α-SYN from human postmortem brain (substantia nigra) (human (endogenous in postmortem brain)) (UniProt P37840)

endogenous α-SYN from human postmortem brain (substantia nigra) (from UniProt P37840 1-140) (natural protein)
percent of detected α-SYN that is oligomeric (PD brain): 56% | percent of detected α-SYN that is oligomeric (control brain): 23%
